Assay results published in patent publication US20210324099A1 (Chugai, published 2021).

T1: hFcgRIIaH (human, UniProt P12318 34-217)
T1 construct: extracellular domain; also called human FcγRIIa type H (H131)
T1 sequence (looked up): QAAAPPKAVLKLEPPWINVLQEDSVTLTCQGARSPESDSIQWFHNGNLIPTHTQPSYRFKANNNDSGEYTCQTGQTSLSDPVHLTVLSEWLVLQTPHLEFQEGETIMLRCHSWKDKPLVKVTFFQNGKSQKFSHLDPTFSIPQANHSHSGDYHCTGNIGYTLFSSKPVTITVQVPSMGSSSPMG

T2: hFcgRIIaR (human, UniProt P12318 34-217)
T2 construct: extracellular domain; also called human FcγRIIa type R (R131)
T2 sequence (looked up): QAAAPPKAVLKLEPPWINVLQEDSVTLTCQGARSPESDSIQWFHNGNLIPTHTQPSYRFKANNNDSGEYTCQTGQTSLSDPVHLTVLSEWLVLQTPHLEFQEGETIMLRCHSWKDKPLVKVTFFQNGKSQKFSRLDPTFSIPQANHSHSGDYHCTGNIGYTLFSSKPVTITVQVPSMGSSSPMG

T3: hFcgRIIb (human, UniProt P31994 43-217)
T3 construct: extracellular domain; also called human FcγRIIb
T3 sequence (looked up): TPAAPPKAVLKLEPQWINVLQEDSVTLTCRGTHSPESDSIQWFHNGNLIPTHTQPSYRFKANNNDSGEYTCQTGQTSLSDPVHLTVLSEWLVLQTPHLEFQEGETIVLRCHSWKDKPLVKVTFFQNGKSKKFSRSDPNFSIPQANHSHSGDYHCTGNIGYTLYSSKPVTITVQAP


Tests used:
hFcgRIa [1] = molecular target: T4, hFcgRIa (human, UniProt P12314 16-292); experiment: SPR 25C
T4 construct: extracellular domain; also called human FcγRIa; FcγRI
T4 sequence (P12314 16-292): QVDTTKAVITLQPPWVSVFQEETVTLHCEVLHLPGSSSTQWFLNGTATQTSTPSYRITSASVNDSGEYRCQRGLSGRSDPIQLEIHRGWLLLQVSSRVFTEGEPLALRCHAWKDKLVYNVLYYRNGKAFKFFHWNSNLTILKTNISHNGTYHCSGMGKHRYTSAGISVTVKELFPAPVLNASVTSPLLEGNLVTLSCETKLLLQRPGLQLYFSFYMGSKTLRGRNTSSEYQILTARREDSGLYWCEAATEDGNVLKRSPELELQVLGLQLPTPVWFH

hFcgRIIaH [2] = molecular target: T1, hFcgRIIaH; experiment: SPR 25C
hFcgRIIaR [3] = molecular target: T2, hFcgRIIaR; experiment: SPR 25C
hFcgRIIb [4] = molecular target: T3, hFcgRIIb; experiment: SPR 25C
hFcgRIIIaF [5] = molecular target: T5, hFcgRIIIaF (human, UniProt P08637 17-208); experiment: SPR 25C
T5 construct: extracellular domain; also called human FcγRIIIa allotype F158
T5 sequence (P08637 17-208): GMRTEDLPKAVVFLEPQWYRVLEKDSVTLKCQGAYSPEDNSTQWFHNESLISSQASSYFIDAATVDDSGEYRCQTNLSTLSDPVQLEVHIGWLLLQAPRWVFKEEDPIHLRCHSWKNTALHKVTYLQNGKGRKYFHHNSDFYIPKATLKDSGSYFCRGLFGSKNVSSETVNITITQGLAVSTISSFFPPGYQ

hFcgRIIIaV [6] = molecular target: T6, hFcgRIIIaV (human, UniProt P08637 17-208); experiment: SPR 25C
T6 construct: extracellular domain; also called human FcγRIIIa allotype V158
T6 sequence (P08637 17-208 F176V): as the sequence (P08637 17-208) above, with F160V counted along it

human FcRn = human FcRn (human, UniProt P55899 24-290; P61769 21-119, limits assumed); experiment: SPR 25C pH 6.0, steady state;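 also: antibody captured on chip via anti-human Fab-lambda ligand, human FcRn injected as analyte in 50 mM phosphate buffer with 150 mM NaCl and P20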
hFcgRIa [7] = molecular target: T4, hFcgRIa; experiment: SPR 25C; relative to A375-G1T3/B167-Lamlib;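 also: SPR with antibody captured on an anti-human Fab-lambda chip, human FcγR analyte at 8 nM for FcγRIa or 1000 nM for the others, pH 7.4, FcγR RU per captured antibody unit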
hFcgRIIaH [8] = molecular target: T1, hFcgRIIaH; experiment: SPR 25C; relative to A375-G1T3/B167-Lamlib;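 also: SPR with antibody captured on an anti-human Fab-lambda chip, human FcγR analyte at 8 nM for FcγRIa or 1000 nM for the others, pH 7.4, FcγR RU per captured antibody unit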
hFcgRIIaR [9] = molecular target: T2, hFcgRIIaR; experiment: SPR 25C; relative to A375-G1T3/B167-Lamlib;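 also: SPR with antibody captured on an anti-human Fab-lambda chip, human FcγR analyte at 8 nM for FcγRIa or 1000 nM for the others, pH 7.4, FcγR RU per captured antibody unit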
hFcgRIIb [10] = molecular target: T3, hFcgRIIb; experiment: SPR 25C; relative to A375-G1T3/B167-Lamlib;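 also: SPR with antibody captured on an anti-human Fab-lambda chip, human FcγR analyte at 8 nM for FcγRIa or 1000 nM for the others, pH 7.4, FcγR RU per captured antibody unit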
hFcgRIIIaF [11] = molecular target: T5, hFcgRIIIaF; experiment: SPR 25C; relative to A375-G1T3/B167-Lamlib
hFcgRIIIaV [12] = molecular target: T6, hFcgRIIIaV; experiment: SPR 25C; relative to A375-G1T3/B167-Lamlib
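For binding per 1RU of antibody in this document: biacore SPR with antibody captured on an anti-human Fab lambda chip, human FcγR injected at 1000 nM (FcγRIa at 8 nM) in pH 7.4 phosphate buffer.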

Row | Binder | binding per 1RU of antibody (hFcgRIa [1]) | binding per 1RU of antibody (hFcgRIIaH [2]) | binding per 1RU of antibody (hFcgRIIaR [3]) | binding per 1RU of antibody (hFcgRIIb [4]) | binding per 1RU of antibody (hFcgRIIIaF [5]) | binding per 1RU of antibody (hFcgRIIIaV [6]) | Kd (human FcRn) | relative binding amount (hFcgRIa [7]) | relative binding amount (hFcgRIIaH [8]) | relative binding amount (hFcgRIIaR [9]) | relative binding amount (hFcgRIIb [10]) | relative binding amount (hFcgRIIIaF [11]) | relative binding amount (hFcgRIIIaV [12])
1 | A375-P587/B167-Lamlib (antibody, human IgG1, lambda, copies: 2 + 2) heavy: EVQLVESGGGLVKPGGSLRLSCAASGFTFSTFTMNWVRQAPGKGLEWVSSISSKSTYIEYADSFKVRFTISRDNAKNSLYLQMNSLRAEDTAVYYCARYGAKNFLNWVFDYWGQGTLVTVSSASTKGPSVFPLAPSSKSTSGGTAALGCLVKDYFPEPVTVSWNSGALTSGVHTFPAVLQSSGLYSLSSVVTVPSSSLGTQTYICNVNHKPSNTKVDKKVEPKSCDKTHTCPPCPAPDLLGGDSVFLFPPKPKDTLMISRTPEVTCVVIDVAEEDGEVKFNWYVDGVEVHNAKTKPREEQYNSTYRVVSVLTVLHQDWLNGKEYKCKVSNKALPAPIEKTISKAKGQPREPQVYTLPPSRDELTKNQVSLTCLVKGFYPSDIAVEWESNGQPENNYKTTPPVLDSDGSFFLYSKLTVDKSRWQQGNVFSCSVMHEALHNHYTQKSLSLSP light: QSALTQPPSASGSPGQTVTISCTGTRYDVGYYEYVSWYQQHPGKAPKLMIYETSKRLSGVPDRFSGSKSGNTASLTVSGLQAEDEADYYCSSYRYEHQVSFGGGTKLTVLGQPKAAPSVTLFPPSSEELQANKATLVCLISDFYPGAVTVAWKADSSPVKAGVETTTPSKQSNNKYAASSYLSLTPEQWKSHRSYSCQVTHEGSTVEKTVAPTECS | 0.0962 RU | 0.0029 RU | 0.0371 RU | 0.143 RU | 0.0001 RU | 0.0001 RU | 1700 nM | 1.18 | 0.05 | 0.8 | 13 | 0 | 0
2 | A375-P253/B167-Lamlib (antibody, human IgG1, lambda, copies: 2 + 2) heavy: not shown light: QSALTQPPSASGSPGQTVTISCTGTRYDVGYYEYVSWYQQHPGKAPKLMIYETSKRLSGVPDRFSGSKSGNTASLTVSGLQAEDEADYYCSSYRYEHQVSFGGGTKLTVLGQPKAAPSVTLFPPSSEELQANKATLVCLISDFYPGAVTVAWKADSSPVKAGVETTTPSKQSNNKYAASSYLSLTPEQWKSHRSYSCQVTHEGSTVEKTVAPTECS | 0.0937 RU | 0.0497 RU | 0.168 RU | 0.156 RU | 0.0056 RU | 0.0019 RU | 1420 nM | 1.15 | 0.88 | 3.62 | 14.3 | 0.26 | 0.03

Now those with a lower Kd (human FcRn), led by results:

Row | binding per 1RU of antibody (hFcgRIa [1]) | binding per 1RU of antibody (hFcgRIIaH [2]) | binding per 1RU of antibody (hFcgRIIaR [3]) | binding per 1RU of antibody (hFcgRIIb [4]) | binding per 1RU of antibody (hFcgRIIIaF [5]) | binding per 1RU of antibody (hFcgRIIIaV [6]) | Kd (human FcRn) | relative binding amount (hFcgRIa [7]) | relative binding amount (hFcgRIIaH [8]) | relative binding amount (hFcgRIIaR [9]) | relative binding amount (hFcgRIIb [10]) | relative binding amount (hFcgRIIIaF [11]) | relative binding amount (hFcgRIIIaV [12]) | Binder
3 | 0.0033 RU | 0.0479 RU | 0.047 RU | 0.0489 RU | 0.0006 RU | 0.0009 RU | 1320 nM | 0.04 | 0.84 | 1.01 | 4.46 | 0.03 | 0.01 | A375-MY518a/B167-Lamlib (antibody, human IgG1, lambda, copies: 2 + 2) heavy: EVQLVESGGGLVKPGGSLRLSCAASGFTFSTFTMNWVRQAPGKGLEWVSSISSKSTYIEYADSFKVRFTISRDNAKNSLYLQMNSLRAEDTAVYYCARYGAKNFLNWVFDYWGQGTLVTVSSASTKGPSVFPLAPSSKSTSGGTAALGCLVKDYFPEPVTVSWNSGALTSGVHTFPAVLQSSGLYSLSSVVTVPSSSLGTQTYICNVNHKPSNTKVDKRVEPKSCDKTHTCPPCPAPELWNGPSVFLFPPKPKDTLMISRTPEVTCVVVDVSDEDPEVKFNWYVDGVEVHNAKTKPREELYNSTYRVVSVLTVLHQDWLNGKEYKCKVSNTALPKPIEKTISKAKGQPREPQVYTLPPSREEMTKNQVSLTCLVKGFYPSDIAVEWESNGQPENNYKTTPPVLDSDGSFFLYSKLTVDKSRWQQGNVFSCSVMHEALHNHYTQKSLSLSP light: QSALTQPPSASGSPGQTVTISCTGTRYDVGYYEYVSWYQQHPGKAPKLMIYETSKRLSGVPDRFSGSKSGNTASLTVSGLQAEDEADYYCSSYRYEHQVSFGGGTKLTVLGQPKAAPSVTLFPPSSEELQANKATLVCLISDFYPGAVTVAWKADSSPVKAGVETTTPSKQSNNKYAASSYLSLTPEQWKSHRSYSCQVTHEGSTVEKTVAPTECS
4 | 0.0022 RU | 0.0514 RU | 0.0519 RU | 0.0512 RU | 0.0012 RU | 0.0014 RU | 1100 nM | 0.03 | 0.91 | 1.12 | 4.67 | 0.06 | 0.02 | A375-SCF025/B167-Lamlib (antibody, human IgG1, lambda) heavy: EVQLVESGGGLVKPGGSLRLSCAASGFTFSTFTMNWVRQAPGKGLEWVSSISSKSTYIEYADSFKVRFTISRDNAKNSLYLQMNSLRAEDTAVYYCARYGAKNFLNWVFDYWGQGTLVTVSSASTKGPSVFPLAPSSKSTSGGTAALGCLVKDYFPEPVTVSWNSGALTSGVHTFPAVLQSSGLYSLSSVVTVPSSSLGTQTYICNVNHKPSNTKVDKKVEPKSCDKTHTCPPCPAPELWNGPSVFLFPPKPKDTLMISRTPEVTCVVVDVSDEDPEVKFNWYVDGVEVHNAKTKPREELYNSTYRVVSVLTVLHQDWLNGKEYKCKVSNTALPKPIEKTISKAKGQRREPQVYTLPPSREEMTKNQVSLTCLVKGFYPSDIAVEWESNGQPENNYKTTPPVLDSDGSFFLYSKLTVKKSRWQQGNVFSCSVMHEALHNHYTQKSLSLSP light: QSALTQPPSASGSPGQTVTISCTGTRYDVGYYEYVSWYQQHPGKAPKLMIYETSKRLSGVPDRFSGSKSGNTASLTVSGLQAEDEADYYCSSYRYEHQVSFGGGTKLTVLGQPKAAPSVTLFPPSSEELQANKATLVCLISDFYPGAVTVAWKADSSPVKAGVETTTPSKQSNNKYAASSYLSLTPEQWKSHRSYSCQVTHEGSTVEKTVAPTECS
5 | 0.0021 RU | 0.0514 RU | 0.0518 RU | 0.0511 RU | 0.0009 RU | 0.0016 RU | 1130 nM | 0.03 | 0.91 | 1.12 | 4.67 | 0.04 | 0.02 | A375-SCF025a/B167-Lamlib (antibody, human IgG1, lambda) heavy: EVQLVESGGGLVKPGGSLRLSCAASGFTFSTFTMNWVRQAPGKGLEWVSSISSKSTYIEYADSFKVRFTISRDNAKNSLYLQMNSLRAEDTAVYYCARYGAKNFLNWVFDYWGQGTLVTVSSASTKGPSVFPLAPSSKSTSGGTAALGCLVKDYFPEPVTVSWNSGALTSGVHTFPAVLQSSGLYSLSSVVTVPSSSLGTQTYICNVNHKPSNTKVDKRVEPKSCDKTHTCPPCPAPELWNGPSVFLFPPKPKDTLMISRTPEVTCVVVDVSDEDPEVKFNWYVDGVEVHNAKTKPREELYNSTYRVVSVLTVLHQDWLNGKEYKCKVSNTALPKPIEKTISKAKGQRREPQVYTLPPSREEMTKNQVSLTCLVKGFYPSDIAVEWESNGQPENNYKTTPPVLDSDGSFFLYSKLTVKKSRWQQGNVFSCSVMHEALHNHYTQKSLSLSP light: QSALTQPPSASGSPGQTVTISCTGTRYDVGYYEYVSWYQQHPGKAPKLMIYETSKRLSGVPDRFSGSKSGNTASLTVSGLQAEDEADYYCSSYRYEHQVSFGGGTKLTVLGQPKAAPSVTLFPPSSEELQANKATLVCLISDFYPGAVTVAWKADSSPVKAGVETTTPSKQSNNKYAASSYLSLTPEQWKSHRSYSCQVTHEGSTVEKTVAPTECS
